Measured values as given in patent US9388450B2, “FRET based multiplex probes” (University of North Texas Health Science Center at Fort …, priority 2013, dated 2016).
Ends that are not written are not given here.

Legend:
Assay type in all cases: biochemical
MMP-9 = MMP-9 (Homo sapiens, UniProt P14780); experiment: FRET-based detection of peptide cleavage by MMP-9
Description: Matrix metalloproteinases (MMPs) are involved in major human diseases such as cancer, AIDS, and inflammation. Therefore, sensitive detection and imaging of MMPs activities offer great clinical value to cancer detection, treatment, and therapy monitoring. Among many successful approaches that utilize peptide chemistry Förster resonance energy transfer (FRET) offers high potential for development of in-vitro and in-vivo proteases assays. Recently we developed and tested a specific peptide sequence that is a substrate for MMP-9 (Lys-Gly-Pro-Arg-Ser-Leu-Ser-Gly-Lys) (SEQ ID NO.: 3) (FIG. 4), which is cleaved into Lys-Gly-Pro-Arg-Ser (SEQ ID NO.: 4) and Leu-Ser-Gly-Lys (SEQ ID NO.: 5). Other non-limiting sequence targets can include, e.g., peptide substrates for a consensus for MMP-2 (Lys-Gly-Ser-Gly-Pro-Tyr-Val-Ile-Trp-Leu-Gly-Lys) (SEQ ID NO.: 6) (SEQ ID NO.: 7). In this approach, one end of the specific peptide was labeled with a donor and the other with an acceptor chromophore. A selective cleavage of this specific peptide sequence by MMP-9 protease results in the separation of the two segments of oligopeptide carrying the donor and acceptor and consequently leads to significant increase of donor signal and decrease in acceptor signal. A ratiometric approach allows excellent dynamic range for detection that produces an almost 60 fold change when going from intact to completely cleaved peptide.
They have also shown that the peptide is very specific and is not digested by MMP-2 enzyme MMP-3 or MMP-7 enzymes. FRET sensitized fluorescence detection proves to be very effective detection approach. Similar specific peptide sequences have been developed for MMP-2, MMP-7 and more. To make highly confident assessment of various proteases activities directly in cells and tissue it is necessary to have single molecular probe capable for simultaneous analysis/detection of more than one protease. […]

MMP-2 = target: T1, MMP-2 (Homo sapiens, UniProt P08253); experiment: specificity of peptide: digestion by MMP-2; conditions: peptide as substrate
T1 sequence (P08253 110-660): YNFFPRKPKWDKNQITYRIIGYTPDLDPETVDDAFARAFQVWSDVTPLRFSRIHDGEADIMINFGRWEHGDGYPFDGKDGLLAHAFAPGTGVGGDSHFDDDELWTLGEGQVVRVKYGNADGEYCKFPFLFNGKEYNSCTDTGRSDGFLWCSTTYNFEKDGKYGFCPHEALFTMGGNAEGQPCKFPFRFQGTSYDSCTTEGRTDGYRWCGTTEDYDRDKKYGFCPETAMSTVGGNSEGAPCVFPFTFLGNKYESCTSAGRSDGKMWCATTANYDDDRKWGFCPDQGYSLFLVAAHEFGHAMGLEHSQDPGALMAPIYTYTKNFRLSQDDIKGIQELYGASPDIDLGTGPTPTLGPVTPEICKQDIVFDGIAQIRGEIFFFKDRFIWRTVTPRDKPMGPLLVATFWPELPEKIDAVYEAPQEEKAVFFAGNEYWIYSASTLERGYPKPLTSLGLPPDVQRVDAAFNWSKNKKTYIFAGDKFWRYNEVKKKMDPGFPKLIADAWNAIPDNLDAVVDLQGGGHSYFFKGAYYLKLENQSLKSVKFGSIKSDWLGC
Description: (§1) They have also shown that the peptide is very specific and is not digested by MMP-2 enzyme MMP-3 or MMP-7 enzymes. FRET sensitized fluorescence detection proves to be very effective detection approach. Similar specific peptide sequences have been developed for MMP-2, MMP-7 and more. To make highly confident assessment of various proteases activities directly in cells and tissue it is necessary to have single molecular probe capable for simultaneous analysis/detection of more than one protease. The present invention includes methods for developing and constructing a new probe that will be capable of simultaneous detection of activities of two proteases (like MMP-2 and MMP-9) at the same time and the same place by the same molecule (molecular construct). […] The probe is constructed in a way to force two sequential steps of energy transfer process. First step (FRET 1), is mediated through the cleavable linker specific to enzyme 1 (for example MMP-9) and occurs between the first energy donor and first acceptor (acceptor is a central body). Second step (FRET 2), is between the first acceptor that becomes donor to the second acceptor. The second donor and second acceptor are separated by linker specific to enzyme 2 (for example MMP-2). A highly efficient well-defined sequential FRET process offers distinctive signatures for recognizing two proteins activities. […]

MMP-3 = MMP-3 (Homo sapiens, UniProt P08254); experiment: specificity of peptide: digestion by MMP-3; conditions: peptide as substrate
MMP-3, sequence (P08254 100-477): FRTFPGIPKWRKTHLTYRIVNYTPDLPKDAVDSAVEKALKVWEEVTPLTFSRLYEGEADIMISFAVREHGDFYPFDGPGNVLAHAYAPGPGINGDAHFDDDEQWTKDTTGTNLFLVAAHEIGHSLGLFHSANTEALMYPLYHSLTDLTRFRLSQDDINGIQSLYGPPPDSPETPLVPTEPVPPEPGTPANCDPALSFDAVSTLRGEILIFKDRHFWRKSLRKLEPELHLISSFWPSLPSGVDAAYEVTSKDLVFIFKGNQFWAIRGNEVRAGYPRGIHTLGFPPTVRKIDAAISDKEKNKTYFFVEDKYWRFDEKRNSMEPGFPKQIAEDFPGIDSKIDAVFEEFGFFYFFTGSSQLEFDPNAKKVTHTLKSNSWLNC
Description: as §1

MMP-7 = target: T2, MMP-7 (Homo sapiens, UniProt P09237); experiment: specificity of peptide: digestion by MMP-7; conditions: peptide as substrate
T2 sequence (P09237 95-267): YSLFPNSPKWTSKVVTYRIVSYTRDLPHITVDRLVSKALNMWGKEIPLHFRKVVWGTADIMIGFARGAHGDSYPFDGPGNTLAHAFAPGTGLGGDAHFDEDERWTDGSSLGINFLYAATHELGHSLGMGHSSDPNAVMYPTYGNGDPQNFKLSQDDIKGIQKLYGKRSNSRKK
Description: as §1

MMP-9, sequence (P14780 94-707): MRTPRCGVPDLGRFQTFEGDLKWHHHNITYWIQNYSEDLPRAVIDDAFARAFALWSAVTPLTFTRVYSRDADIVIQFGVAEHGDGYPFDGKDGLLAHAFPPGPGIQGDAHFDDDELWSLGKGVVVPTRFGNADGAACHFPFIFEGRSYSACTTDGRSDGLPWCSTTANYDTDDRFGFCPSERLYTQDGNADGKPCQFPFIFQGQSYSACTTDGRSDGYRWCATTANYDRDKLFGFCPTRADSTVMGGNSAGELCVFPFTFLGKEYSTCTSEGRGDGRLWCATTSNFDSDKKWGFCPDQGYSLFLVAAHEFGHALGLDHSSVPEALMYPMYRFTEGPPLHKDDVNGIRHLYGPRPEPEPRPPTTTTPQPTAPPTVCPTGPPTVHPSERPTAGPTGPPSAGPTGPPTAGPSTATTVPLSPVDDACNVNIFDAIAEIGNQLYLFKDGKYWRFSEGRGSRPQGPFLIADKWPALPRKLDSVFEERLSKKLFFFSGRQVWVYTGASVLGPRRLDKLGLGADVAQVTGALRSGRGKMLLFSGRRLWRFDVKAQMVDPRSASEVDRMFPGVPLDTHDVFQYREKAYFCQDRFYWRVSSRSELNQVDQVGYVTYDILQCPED

cleavage of the peptide by MMP-9 (MMP-9; peptide as substrate): very effectively cleaves | FRET when intact (MMP-9; peptide labeled with donor and acceptor, intact, before addition of MMP-9): > 90% | ratiometric change (donor/acceptor signal) going from intact to completely cleaved peptide (MMP-9; peptide labeled with donor on one end and acceptor on the other, cleaved by MMP-9): ~60 fold | digestion of the peptide by MMP-2 enzyme (MMP-2): not digested | digestion of the peptide by MMP-3 enzyme (MMP-3): not digested | digestion of the peptide by MMP-7 enzyme (MMP-7): not digested
Substance: Lys-Gly-Pro-Arg-Ser-Leu-Ser-Gly-Lys (KGPRSLSGK; also: donor and acceptor labels) [labeled with donor on one end and acceptor on the other]
